The values that follow come from patent publication US20090274620A1 (WILEX, published 2009).

This experiment deals with G250 antigen (MN antigen), complete protein, aa 1-459 (UniProt Q16790 38-459). In words: immunohistochemistry of G250-negative cells transiently transfected with the complete cDNA.

B1: monoclonal antibody G250 (murine, from hybridoma DSM ACC 2526) (antibody, IgG1, V domains shown)
VH: DVKLVESGGGLVKLGGSLKLSCAASGFTFSNYYMSWVRQTPEKRLELVAAINSDGGITYYLDTVKGRFTISRDNAKNTLYLQMSSLKSEDTALFYCARHRSGYFSMDYWGQGTSVTVSS
VL: DIVMTQSQRFMSTTVGDRVSITCKASQNVVSAVAWYQQKPGQSPKLLIYSASNRYTGVPDRFTGSGSGTDFTLTISNMQSEDLADFFCQQYSNYPWTFGGGTKLEIK
notes: also called MAbG250; MabG250
B1: the binding result is recorded as “binds”.
